{
  "source": "paper PMC11065315",
  "key": {"[1]": {"target": "phosphorylated eIFiso4F in complex with eIF4B and poly(A)-binding protein (wheat) (UniProt Q9AUJ7)", "test": "other fluorescence titration; 25°C; quenching of the intrinsic fluorescence of the eIFs (excitation 280 nm, emission 334 nm) by increasing VPg; 100 nM eIFs or BSA (results; 500 nM in the methods); 20 mM HEPES/KOH pH 7.6, 100 mM NaCl, 1 mM MgCl2, 1 mM DTT; complexes pre-formed for 15 min"}, "[2]": {"target": "phosphorylated eIFiso4F (wheat eIFiso4Ep and eIFiso4Gp, phosphorylated in vitro by casein kinase 2) (wheat)", "test": "other fluorescence titration; 25°C; quenching of the intrinsic fluorescence of the eIFs (excitation 280 nm, emission 334 nm) by increasing VPg; 100 nM eIFs or BSA (results; 500 nM in the methods); 20 mM HEPES/KOH pH 7.6, 100 mM NaCl, 1 mM MgCl2, 1 mM DTT; complexes pre-formed for 15 min"}, "[3]": {"target": "phosphorylated eIFiso4F in complex with eIF4B (wheat) (UniProt Q9AUJ7)", "test": "other fluorescence titration; 25°C; quenching of the intrinsic fluorescence of the eIFs (excitation 280 nm, emission 334 nm) by increasing VPg; 100 nM eIFs or BSA (results; 500 nM in the methods); 20 mM HEPES/KOH pH 7.6, 100 mM NaCl, 1 mM MgCl2, 1 mM DTT; complexes pre-formed for 15 min"}, "[4]": {"target": "phosphorylated eIFiso4F in complex with poly(A)-binding protein (wheat)", "test": "other fluorescence titration; 25°C; quenching of the intrinsic fluorescence of the eIFs (excitation 280 nm, emission 334 nm) by increasing VPg; 100 nM eIFs or BSA (results; 500 nM in the methods); 20 mM HEPES/KOH pH 7.6, 100 mM NaCl, 1 mM MgCl2, 1 mM DTT; complexes pre-formed for 15 min"}, "[5]": {"target": "phosphorylated eIFiso4F in complex with eIF4B and poly(A)-binding protein (wheat) (UniProt Q9AUJ7)", "test": "other fluorescence titration; 5°C; quenching of the intrinsic fluorescence of the eIFs by increasing VPg; 20 mM HEPES/KOH pH 7.6, 100 mM NaCl, 1 mM MgCl2, 1 mM DTT"}, "[6]": {"target": "phosphorylated eIFiso4F (wheat eIFiso4Ep and eIFiso4Gp, phosphorylated in vitro by casein kinase 2) (wheat)", "test": "other fluorescence titration; 5°C; quenching of the intrinsic fluorescence of the eIFs by increasing VPg; 20 mM HEPES/KOH pH 7.6, 100 mM NaCl, 1 mM MgCl2, 1 mM DTT"}, "[7]": {"target": "phosphorylated eIFiso4F in complex with eIF4B (wheat) (UniProt Q9AUJ7)", "test": "other fluorescence titration; 5°C; quenching of the intrinsic fluorescence of the eIFs by increasing VPg; 20 mM HEPES/KOH pH 7.6, 100 mM NaCl, 1 mM MgCl2, 1 mM DTT"}, "[8]": {"target": "phosphorylated eIFiso4F in complex with poly(A)-binding protein (wheat)", "test": "other fluorescence titration; 5°C; quenching of the intrinsic fluorescence of the eIFs by increasing VPg; 20 mM HEPES/KOH pH 7.6, 100 mM NaCl, 1 mM MgCl2, 1 mM DTT"}, "[9]": {"target": "phosphorylated eIFiso4F in complex with eIF4B and poly(A)-binding protein (wheat) (UniProt Q9AUJ7)", "test": "other fluorescence titration; 15°C; quenching of the intrinsic fluorescence of the eIFs by increasing VPg; 20 mM HEPES/KOH pH 7.6, 100 mM NaCl, 1 mM MgCl2, 1 mM DTT"}, "[10]": {"target": "phosphorylated eIFiso4F (wheat eIFiso4Ep and eIFiso4Gp, phosphorylated in vitro by casein kinase 2) (wheat)", "test": "other fluorescence titration; 15°C; quenching of the intrinsic fluorescence of the eIFs by increasing VPg; 20 mM HEPES/KOH pH 7.6, 100 mM NaCl, 1 mM MgCl2, 1 mM DTT"}, "[11]": {"target": "phosphorylated eIFiso4F in complex with eIF4B (wheat) (UniProt Q9AUJ7)", "test": "other fluorescence titration; 15°C; quenching of the intrinsic fluorescence of the eIFs by increasing VPg; 20 mM HEPES/KOH pH 7.6, 100 mM NaCl, 1 mM MgCl2, 1 mM DTT"}, "[12]": {"target": "phosphorylated eIFiso4F in complex with poly(A)-binding protein (wheat)", "test": "other fluorescence titration; 15°C; quenching of the intrinsic fluorescence of the eIFs by increasing VPg; 20 mM HEPES/KOH pH 7.6, 100 mM NaCl, 1 mM MgCl2, 1 mM DTT"}, "[13]": {"target": "eIFiso4F (unphosphorylated; wheat eIFiso4E and eIFiso4G) (wheat)"}, "[14]": {"target": "phosphorylated eIFiso4F (wheat eIFiso4Ep and eIFiso4Gp, phosphorylated in vitro by casein kinase 2) (wheat)"}, "[15]": {"target": "phosphorylated eIFiso4F in complex with eIF4B and poly(A)-binding protein (wheat) (UniProt Q9AUJ7)", "test": "other fluorescence titration; 10°C; quenching of the intrinsic fluorescence of the eIFs by increasing VPg; 20 mM HEPES/KOH pH 7.6, 100 mM NaCl, 1 mM MgCl2, 1 mM DTT"}, "[16]": {"target": "phosphorylated eIFiso4F (wheat eIFiso4Ep and eIFiso4Gp, phosphorylated in vitro by casein kinase 2) (wheat)", "test": "other fluorescence titration; 10°C; quenching of the intrinsic fluorescence of the eIFs by increasing VPg; 20 mM HEPES/KOH pH 7.6, 100 mM NaCl, 1 mM MgCl2, 1 mM DTT"}, "[17]": {"target": "phosphorylated eIFiso4F in complex with eIF4B (wheat) (UniProt Q9AUJ7)", "test": "other fluorescence titration; 10°C; quenching of the intrinsic fluorescence of the eIFs by increasing VPg; 20 mM HEPES/KOH pH 7.6, 100 mM NaCl, 1 mM MgCl2, 1 mM DTT"}, "[18]": {"target": "phosphorylated eIFiso4F in complex with poly(A)-binding protein (wheat)", "test": "other fluorescence titration; 10°C; quenching of the intrinsic fluorescence of the eIFs by increasing VPg; 20 mM HEPES/KOH pH 7.6, 100 mM NaCl, 1 mM MgCl2, 1 mM DTT"}, "[19]": {"target": "phosphorylated eIFiso4F in complex with eIF4B and poly(A)-binding protein (wheat) (UniProt Q9AUJ7)", "test": "other fluorescence titration; Van't Hoff plot (ln Keq against 1/T) of the fluorescence titrations at 5, 10, 15, 20 and 25°C"}, "[20]": {"target": "phosphorylated eIFiso4F (wheat eIFiso4Ep and eIFiso4Gp, phosphorylated in vitro by casein kinase 2) (wheat)", "test": "other fluorescence titration; Van't Hoff plot (ln Keq against 1/T) of the fluorescence titrations at 5, 10, 15, 20 and 25°C"}, "[21]": {"target": "phosphorylated eIFiso4F in complex with eIF4B (wheat) (UniProt Q9AUJ7)", "test": "other fluorescence titration; Van't Hoff plot (ln Keq against 1/T) of the fluorescence titrations at 5, 10, 15, 20 and 25°C"}, "[22]": {"target": "phosphorylated eIFiso4F in complex with poly(A)-binding protein (wheat)", "test": "other fluorescence titration; Van't Hoff plot (ln Keq against 1/T) of the fluorescence titrations at 5, 10, 15, 20 and 25°C"}, "[23]": {"target": "phosphorylated eIFiso4F in complex with eIF4B and poly(A)-binding protein (wheat) (UniProt Q9AUJ7)", "test": "other fluorescence titration; 20°C; quenching of the intrinsic fluorescence of the eIFs by increasing VPg; 20 mM HEPES/KOH pH 7.6, 100 mM NaCl, 1 mM MgCl2, 1 mM DTT"}, "[24]": {"target": "phosphorylated eIFiso4F (wheat eIFiso4Ep and eIFiso4Gp, phosphorylated in vitro by casein kinase 2) (wheat)", "test": "other fluorescence titration; 20°C; quenching of the intrinsic fluorescence of the eIFs by increasing VPg; 20 mM HEPES/KOH pH 7.6, 100 mM NaCl, 1 mM MgCl2, 1 mM DTT"}, "[25]": {"target": "phosphorylated eIFiso4F in complex with eIF4B (wheat) (UniProt Q9AUJ7)", "test": "other fluorescence titration; 20°C; quenching of the intrinsic fluorescence of the eIFs by increasing VPg; 20 mM HEPES/KOH pH 7.6, 100 mM NaCl, 1 mM MgCl2, 1 mM DTT"}, "[26]": {"target": "phosphorylated eIFiso4F in complex with poly(A)-binding protein (wheat)", "test": "other fluorescence titration; 20°C; quenching of the intrinsic fluorescence of the eIFs by increasing VPg; 20 mM HEPES/KOH pH 7.6, 100 mM NaCl, 1 mM MgCl2, 1 mM DTT"}},
  "data": [
    {"substance": "viral protein genome-linked (VPg) of turnip mosaic virus (natural protein)", "values": [
      {"measurement": "Kd", "setting": "[1]", "result": 24, "unit": "nM"},
      {"measurement": "Kd", "setting": "[2]", "result": 41, "unit": "nM"},
      {"measurement": "Kd", "setting": "[3]", "result": 34.1, "unit": "nM"},
      {"measurement": "Kd", "setting": "[4]", "result": 32, "unit": "nM"},
      {"measurement": "Kd", "setting": "[5]", "result": 8.6, "unit": "nM"},
      {"measurement": "Kd", "setting": "[6]", "result": 17.1, "unit": "nM"},
      {"measurement": "Kd", "setting": "[7]", "result": 15, "unit": "nM"},
      {"measurement": "Kd", "setting": "[8]", "result": 10.3, "unit": "nM"},
      {"measurement": "Kd", "setting": "[9]", "result": 16.1, "unit": "nM"},
      {"measurement": "Kd", "setting": "[10]", "result": 26.2, "unit": "nM"},
      {"measurement": "Kd", "setting": "[11]", "result": 24, "unit": "nM"},
      {"measurement": "Kd", "setting": "[12]", "result": 19.1, "unit": "nM"},
      {"measurement": "luciferase translation of uncapped TEV mRNA in eIF4F/eIFiso4F/eIF4B/PABP-depleted WGE with 20 nM VPg, escalating PABP up to 200 nM against no PABP", "setting": "[13]", "result": 3, "unit": "fold"},
      {"measurement": "luciferase translation of capped TEV-luc-A50 mRNA in depleted WGE supplemented with eIFiso4Fp, with against without 20 nM VPg", "setting": "[14]", "result": 2.5, "unit": "fold"},
      {"measurement": "luciferase translation of uncapped TEV-luc-A50 mRNA in depleted WGE supplemented with eIFiso4Fp, with against without 20 nM VPg", "setting": "[14]", "result": 5, "unit": "fold"},
      {"measurement": "luciferase translation of uncapped TEV-luc-A50 mRNA in depleted WGE with eIFiso4Fp and VPg, with against without added PABP", "setting": "[14]", "result": 2, "unit": "fold"},
      {"measurement": "Kd", "setting": "[15]", "result": 12, "unit": "nM"},
      {"measurement": "Kd", "setting": "[16]", "result": 21, "unit": "nM"},
      {"measurement": "Kd", "setting": "[17]", "result": 19.1, "unit": "nM"},
      {"measurement": "Kd", "setting": "[18]", "result": 14, "unit": "nM"},
      {"measurement": "dH", "setting": "[19]", "result": -12.8, "unit": "kcal/mol"},
      {"measurement": "dH", "setting": "[20]", "result": -7.98, "unit": "kcal/mol"},
      {"measurement": "dH", "setting": "[21]", "result": -8.46, "unit": "kcal/mol"},
      {"measurement": "dH", "setting": "[22]", "result": -11.7, "unit": "kcal/mol"},
      {"measurement": "Kd", "setting": "[23]", "result": 19.5, "unit": "nM"},
      {"measurement": "Kd", "setting": "[24]", "result": 31, "unit": "nM"},
      {"measurement": "Kd", "setting": "[25]", "result": 29.3, "unit": "nM"},
      {"measurement": "Kd", "setting": "[26]", "result": 26.5, "unit": "nM"}
    ]}
  ]
}
